The chains are these.
T1: human CDH16 protein (hCDH16-his, Novoprotein, Cat. No. CJ16) (human, UniProt O75309 19-786)
T1 construct: Bought; also called human CDH16-his
T1 sequence (looked up): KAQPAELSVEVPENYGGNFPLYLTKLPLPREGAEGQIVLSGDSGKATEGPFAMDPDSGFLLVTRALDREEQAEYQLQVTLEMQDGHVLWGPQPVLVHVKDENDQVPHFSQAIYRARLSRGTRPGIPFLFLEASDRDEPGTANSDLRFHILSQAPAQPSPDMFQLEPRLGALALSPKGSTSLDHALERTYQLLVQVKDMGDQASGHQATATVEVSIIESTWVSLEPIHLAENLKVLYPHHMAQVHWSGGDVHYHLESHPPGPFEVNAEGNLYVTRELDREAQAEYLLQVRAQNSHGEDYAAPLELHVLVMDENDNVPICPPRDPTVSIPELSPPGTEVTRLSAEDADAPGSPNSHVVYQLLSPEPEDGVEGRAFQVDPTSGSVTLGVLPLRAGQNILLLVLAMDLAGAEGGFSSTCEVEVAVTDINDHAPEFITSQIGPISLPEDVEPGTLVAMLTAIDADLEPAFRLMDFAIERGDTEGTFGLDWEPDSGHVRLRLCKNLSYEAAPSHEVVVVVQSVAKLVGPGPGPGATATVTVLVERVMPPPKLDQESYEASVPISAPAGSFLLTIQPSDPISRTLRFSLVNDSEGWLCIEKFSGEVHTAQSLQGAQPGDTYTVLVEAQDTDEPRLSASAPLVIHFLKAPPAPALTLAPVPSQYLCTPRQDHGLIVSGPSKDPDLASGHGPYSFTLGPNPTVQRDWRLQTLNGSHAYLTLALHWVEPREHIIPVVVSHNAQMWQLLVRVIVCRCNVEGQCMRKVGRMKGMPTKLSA

T2: human CDH17, full length, expressed on cells (HEK293-hCDH17); AsPC-1, HCT-8, AGS, LoVo, KATO III, HT-29 tumor … (human, UniProt Q12864 23-832)
T2 construct: also called human CDH17 expressed on tumor cells
T2 sequence: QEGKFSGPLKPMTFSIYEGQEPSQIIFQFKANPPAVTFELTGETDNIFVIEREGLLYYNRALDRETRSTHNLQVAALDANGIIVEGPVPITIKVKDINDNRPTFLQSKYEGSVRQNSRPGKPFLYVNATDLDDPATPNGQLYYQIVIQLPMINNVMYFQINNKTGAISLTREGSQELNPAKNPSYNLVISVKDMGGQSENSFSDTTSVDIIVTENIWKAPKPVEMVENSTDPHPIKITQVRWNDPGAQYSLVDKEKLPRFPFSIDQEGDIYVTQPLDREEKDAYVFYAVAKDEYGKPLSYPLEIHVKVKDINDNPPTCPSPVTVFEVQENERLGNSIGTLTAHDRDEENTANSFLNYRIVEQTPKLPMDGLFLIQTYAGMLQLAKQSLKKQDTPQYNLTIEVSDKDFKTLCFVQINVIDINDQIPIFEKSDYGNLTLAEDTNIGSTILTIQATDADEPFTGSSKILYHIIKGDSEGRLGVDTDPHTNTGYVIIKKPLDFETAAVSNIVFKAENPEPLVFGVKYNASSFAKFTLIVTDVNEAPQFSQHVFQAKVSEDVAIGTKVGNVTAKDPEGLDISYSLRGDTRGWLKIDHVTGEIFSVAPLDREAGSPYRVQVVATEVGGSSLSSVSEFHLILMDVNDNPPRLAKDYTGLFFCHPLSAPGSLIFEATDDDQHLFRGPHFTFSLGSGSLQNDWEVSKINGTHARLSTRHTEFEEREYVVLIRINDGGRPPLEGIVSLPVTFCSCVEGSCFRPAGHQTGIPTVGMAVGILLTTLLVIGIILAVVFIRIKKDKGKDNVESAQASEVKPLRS

T3: hCDH17-his (full length extracellular domain of human CDH17, Q23-M787, his tag at the C-terminal) (human, UniProt Q12864 23-787)
T3 construct: Limits of the construct (UniProt Q12864, Q23-M787, C-terminal his tag); also called human CDH17-his protein; human CDH17 protein
T3 sequence: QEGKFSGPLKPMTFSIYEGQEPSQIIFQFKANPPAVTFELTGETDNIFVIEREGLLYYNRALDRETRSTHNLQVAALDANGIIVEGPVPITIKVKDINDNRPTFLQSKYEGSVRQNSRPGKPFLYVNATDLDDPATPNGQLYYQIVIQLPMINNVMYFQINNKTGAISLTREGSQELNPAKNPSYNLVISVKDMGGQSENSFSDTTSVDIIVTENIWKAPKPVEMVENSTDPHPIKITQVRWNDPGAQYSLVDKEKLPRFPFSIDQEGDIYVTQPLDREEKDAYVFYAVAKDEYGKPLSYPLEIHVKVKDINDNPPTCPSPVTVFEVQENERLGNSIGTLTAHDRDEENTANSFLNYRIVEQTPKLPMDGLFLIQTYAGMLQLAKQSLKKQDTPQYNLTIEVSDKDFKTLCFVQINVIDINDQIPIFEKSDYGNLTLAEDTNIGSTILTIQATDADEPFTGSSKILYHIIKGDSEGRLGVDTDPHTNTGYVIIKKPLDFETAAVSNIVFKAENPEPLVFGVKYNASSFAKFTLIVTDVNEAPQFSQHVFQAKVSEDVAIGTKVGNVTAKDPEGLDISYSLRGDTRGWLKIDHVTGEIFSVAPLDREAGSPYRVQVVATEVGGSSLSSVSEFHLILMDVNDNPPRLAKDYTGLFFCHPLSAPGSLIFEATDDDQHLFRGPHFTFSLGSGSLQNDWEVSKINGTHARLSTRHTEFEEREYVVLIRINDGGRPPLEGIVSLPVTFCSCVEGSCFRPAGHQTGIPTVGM

B1: 67A11B11 chimeric mAb (antibody, V domains shown)
VH: EIQLQQSGPELVKPGASVKVSCKASGYAFTTYNMYWVKQSHGQSLEWIGYIDPYNGVTIYNQKFKGTATLTVDKSSSTAYMHLNSLSSEDSAVYYCTITAATLDAMDYWGQGTSVTVSS
VL: DIVMTQSHKFMSTSVGDRVSITCKASQNVATAVAWYQQKPGQSPKVLIYWTSTRHNGVPDRFTGSGSGTDFTLTISNVQSEDLADYFCQQYNSHPLTFGAGTRLELK
notes: Mouse variable regions fused to human IgG1 constant region
B2: 20C3E8 chimeric mAb (antibody, V domains shown)
VH: QVQLQQSGAELARPGASVKLSCKASGYTFTSYGISWVKQRTGQGLEWIGEIYPRSGNTYYNEKFKGKATLTADKSSSTAYMELRSLTSEDSAVYFCSRLDYGTSPFDYWGQGTTLTVSS
VL: NIVMTQSPKSMSMSVGERVTLSCKASENVGTFVSWYQHKPEQSPKLLIYGASNRYTGVPDRFTGSGSATDFTLTISSVQAEDLADYHCGQSYSYPYTFGGGTKLEIK
notes: as for B1
B3: 95F2C2F12 chimeric mAb (antibody, V domains shown)
VH: QVQLQQSGAELMKPGASVKLSCKATGYTFTGYWIEWIKQRPGHGLEWIGEILPGSGSTNYNEKFKGKATFTADTSSNTAYMELSSLTTEDSAIYYCARAGYNNWGQGTTLTVSS
VL: DIQMTQSPSSLSASLGERVSLTCRASQDIGRSVNWLQQEPDGTIKRLIYATSSLESGVPKRFSGSRSGSDYFLTISSLESEDFVDYYCLQYASSPLTFGAGTKLELK
notes: as for B1
B4: 103G6G1 chimeric mAb (antibody, V domains shown)
VH: EVKLVESEGGLVQPGSSMKLSCTASGFTFSDFYMAWVRQVPEKGLEWVANINYDSTITYYLDSLKSRFIISRDNAENILYLQMSSLKSEDTATYYCARLLYYYGSLYFDVWGTGTTVTVSS
VL: DIQMTQSPASLSASVGETVTITCRASENIYSYLAWYQQKQGKSPQLLVYDAKTLAEGVPSRFSGSGSGTQFSLKINSLQPEDFGSYYCQHHYGIPITFGAGTNLELK
notes: as for B1
B5: 29H8D3 chimeric mAb (antibody, V domains shown)
VH: QVQLQQSDAELVKPGASVKISCKVSGYTFTDHTIHWMKQRPEQGLEWIGYIYPRDGYTKYNEKFKDKATLTADKSSSTAYIQLNTLTSEDSAVYFCARFYYGYWYFDVWGTGTTVTVSS
VL: DIVMTQAAPSVPVTPGESVSISCRSSKSLLRSNGNTYLYWFLQRPGQSPQVLIYRMSNLASGVPDRFSGSGSGTAFTLRISRVEAEDVGVYYCMQHLEYPFTFGAGTKLELK
notes: as for B1
B6: 69E3H11 chimeric mAb (antibody, V domains shown)
VH: QVQLQQPGAELVKPGASVKLSCKASGYTFTTYWMHWVKQRPGQGLEWIGEIDPSDSYANYNQKFKGKATLTVDKSSSTAYMQLSSLTSEDSAVYYCALYYGYGDWGQGTTLTVSS
VL: EIVLTQSPTTMAASPGEKIIITCSVSSSISSIHLHWYQQKPGFSPKLLIYRTSNLASGVPTRFSGSGSGTSYSLTIGTMEAEDVATYYCQQGSNLPLTFGAGTRLELK
notes: as for B1
B7: 61C7F12 chimeric mAb (antibody, V domains shown)
VH: EVQLVESGGGLVKPGGSLKLSCAASGFTFSSYAMSWVRQTPEKRLEWVATINIGGSYTYYPDSVKGRFTISRDNAKNTLYLQMSSLRSEDTAMYYCARQEGRYWYFDVWGAGTTVTVSS
VL: QIVLTQSPAIMSASLGERVTMTCTASSSVSSSYLHWYQQKPGSSPKLWIYSTSNLASGVPARFSGSGSGTSYSLTISSMEAEDAATYYCHQFHRSPYTFGGGTKLEIK
notes: as for B1
B8: 29H8D3-z12p13 (antibody, V domains shown)
VH: QVQLVQSGAEVKKPGASVKVSCKASGYTFTDHTIHWMRQRPGQGLEWIGYIYPRDGYTKYNEKFKDRATLTADTSTSTAYMELRSLRSDDTAVYYCARFYYGYWYFDVWGQGTTVTVSS
VL: DIVMTQSPLSLPVTPGEPASISCRSSKSLLRSNGNTYLYWFLQKPGQSPQVLIYRMSNLASGVPDRFSGSGSGTDFTLKISRVEAEDVGVYYCSQHLEYPFTFGQGTKLEIK
notes: PTM-removed variant of 29H8D3-z12; VH is that of 29H8D3-z12
B9: 29H8D3-z12p16 (antibody, V domains shown)
VH: B8 VH
VL: B8 VL with S94Q
notes: as for B8
B10: 29H8D3-z12p17 (antibody, V domains shown)
VH: B8 VH
VL: B8 VL with S94G
notes: as for B8
B11: 29H8D3-z12p15 (antibody, V domains shown)
VH: B8 VH
VL: B8 VL with S94N
notes: as for B8
B12: 29H8D3-z12p21 (antibody, V domains shown)
VH: B8 VH
VL: B8 VL with S94I
notes: as for B8
B13: 29H8D3-z12p14 (antibody, V domains shown)
VH: B8 VH
VL: B8 VL with S94T
notes: as for B8

Changes are numbered by the printed parent chain.

The first test has as its target T1, human CDH16 protein (hCDH16-his, …). As to the kind of experiment: ELISA, hCDH16-his coated at 1 ug/mL. In general terms: An ELISA detects its analyte on a solid surface through an enzyme-linked reagent.
On to B1, for which the binding result is “no binding (tested: titrated from 100 nM)”.
On the same count and under the same terms, with B2 the entry was “no binding (tested: titrated from 100 nM)”.
Turning to B3, the binding result was “no binding (tested: titrated from 100 nM)”.
Consider B4, for which the binding result is given as “no binding (tested: titrated from 100 nM)”.
For B5, the binding result is reported as “no binding (tested: titrated from 100 nM)”.
On the same count and under the same terms, as for B6, the entry is “no binding (tested: titrated from 100 nM)”.
The same measure, in the same setting: as for B7, the entry is “no binding (tested: titrated from 100 nM)”.

The target of a further test is T2, human CDH17, full length, expressed on …. The test can be described thus: flow cytometry, HEK293-hCDH17 cells. On the technique in general: A flow cytometer gives signals particle by particle.
On to B1, for which the binding result was “binds”.
Take B2: the binding result was “binds”.
As for B3, the binding result was “binds”.
On the same count and under the same terms, as for B4, the entry is “binds”.
Same read-out and setting: as for B6, the entry is “binds”.
On the same count and under the same terms, with B7 the entry was “binds”.

The target in a further test is T3, hCDH17-his (full length extracellular …). As to the kind of experiment: SPR (Biacore 8K), antibody captured on Protein A chip, hCDH17-his injected. In general terms: SPR reads the build-up and loss of mass on a sensor chip optically.
With B1, the binding result was “binds”.
On the same count and under the same terms, with B2 the entry was “binds”; with B3, “binds”.
For B4, the binding result is listed as “binds”.
Same read-out and setting: with B6 the entry was “binds”.
With B7, the binding result was “binds”.

Another test shares this target. As to the kind of experiment: SPR (Biacore 8K), two doses, antibody captured on Protein A chip, hCDH17-his at 25 nM and 100 nM.
On to B8, for which the binding result was “binds”.
On to B9, for which the binding result is “binds”.
The same measure, in the same setting: as for B10, the entry is “binds”.
On the same count and under the same terms, as for B11, the entry is “binds”; as for B12, “binds”.
On the same count and under the same terms, as for B13, the entry is “binds”.
